B1: Monopolin complex subunit pcs1 (Schizosaccharomyces pombe (strain ATCC 38366 / 972)), O13684 (parent)
chain: MRKNNMQTSKDSELKEQAKGKSSKLIHKLPKQRTRISQGQMHSTQDFVNNEDQDAYSVRENENELHINNSGMSELNKKLQLPNVELSTLSHTQEQEFNELNKLIRKINELQEFYLLEDLAKPVTNAGADADDTIVKDLKKELENEKKANHSLKNELLKTREQIKNYSKINILIKELFGLEVADCIEDEDGYRFNCKNTGRRGTLEYQLLLDDQNFTFTPRLNVQTDEELMKHLPDYLLEEIIFTKEQGKLFSARLMKALQD
partner: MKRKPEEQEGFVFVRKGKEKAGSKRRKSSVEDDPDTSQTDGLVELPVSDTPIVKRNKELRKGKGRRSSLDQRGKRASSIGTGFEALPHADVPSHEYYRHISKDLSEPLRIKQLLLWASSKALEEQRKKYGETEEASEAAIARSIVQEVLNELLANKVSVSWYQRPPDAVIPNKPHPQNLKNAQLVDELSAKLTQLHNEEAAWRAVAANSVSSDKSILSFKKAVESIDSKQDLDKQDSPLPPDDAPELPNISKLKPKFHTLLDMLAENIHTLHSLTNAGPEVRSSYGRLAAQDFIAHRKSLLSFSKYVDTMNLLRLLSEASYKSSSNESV
B2: Monopolin complex subunit CSM1 (Saccharomyces cerevisiae), P25651 (parent)
chain: MDPLTVYKNSVKQQIDSADLLVANLVNENFVLSEKLDTKATEIKQLQKQIDSLNAQVKELKTQTSQQAENSEVIKDLYEYLCNVRVHKSYEDDSGLWFDISQGTHSGGSSDDYSIMDYKLGFVKGQAQVTEVIYAPVLKQRSTEELYSLQSKLPEYLFETLSFPLSSLNQFYNKIAKSLNKKREKKDETE
B3: Monopolin complex subunit CSM1 (Saccharomyces cerevisiae), P25651 (parent)
chain: B2 chain
partner: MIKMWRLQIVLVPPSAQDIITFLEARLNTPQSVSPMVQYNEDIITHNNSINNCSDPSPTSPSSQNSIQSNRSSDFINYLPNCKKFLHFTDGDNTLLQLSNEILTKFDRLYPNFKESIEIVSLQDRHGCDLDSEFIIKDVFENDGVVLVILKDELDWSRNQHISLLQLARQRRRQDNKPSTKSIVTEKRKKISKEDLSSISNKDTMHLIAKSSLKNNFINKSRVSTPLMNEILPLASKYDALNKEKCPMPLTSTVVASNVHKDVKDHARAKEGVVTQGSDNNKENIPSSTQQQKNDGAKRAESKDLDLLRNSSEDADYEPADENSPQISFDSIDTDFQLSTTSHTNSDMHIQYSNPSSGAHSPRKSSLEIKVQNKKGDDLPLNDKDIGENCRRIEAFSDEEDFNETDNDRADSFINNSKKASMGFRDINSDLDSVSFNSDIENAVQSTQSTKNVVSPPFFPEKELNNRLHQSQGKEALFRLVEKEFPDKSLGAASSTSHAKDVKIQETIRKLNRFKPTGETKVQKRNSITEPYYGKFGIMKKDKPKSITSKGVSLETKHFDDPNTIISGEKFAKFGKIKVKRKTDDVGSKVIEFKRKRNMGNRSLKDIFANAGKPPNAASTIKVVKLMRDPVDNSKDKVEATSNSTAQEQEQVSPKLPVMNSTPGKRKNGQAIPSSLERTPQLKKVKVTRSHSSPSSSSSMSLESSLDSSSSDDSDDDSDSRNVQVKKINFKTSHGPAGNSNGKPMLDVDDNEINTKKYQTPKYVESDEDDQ
B4: Monopolin complex subunit CSM1 (Saccharomyces cerevisiae), P25651 (parent)
chain: B2 chain
partner: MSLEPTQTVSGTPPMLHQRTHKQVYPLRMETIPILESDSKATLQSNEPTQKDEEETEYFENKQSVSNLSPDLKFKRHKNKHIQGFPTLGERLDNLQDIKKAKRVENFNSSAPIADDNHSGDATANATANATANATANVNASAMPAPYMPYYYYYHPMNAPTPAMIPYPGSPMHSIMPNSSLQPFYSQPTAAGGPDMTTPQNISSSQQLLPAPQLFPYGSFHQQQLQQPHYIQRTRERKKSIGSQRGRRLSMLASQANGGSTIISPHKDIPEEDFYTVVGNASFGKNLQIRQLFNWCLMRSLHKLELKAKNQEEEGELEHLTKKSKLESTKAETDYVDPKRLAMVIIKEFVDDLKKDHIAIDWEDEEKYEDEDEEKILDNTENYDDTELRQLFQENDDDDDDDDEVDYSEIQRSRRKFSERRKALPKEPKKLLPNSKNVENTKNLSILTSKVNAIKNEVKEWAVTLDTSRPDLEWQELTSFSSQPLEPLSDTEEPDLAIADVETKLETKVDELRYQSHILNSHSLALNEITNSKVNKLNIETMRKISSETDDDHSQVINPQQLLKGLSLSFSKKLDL
B5: Monopolin complex subunit pcs1 (Schizosaccharomyces pombe (strain ATCC 38366 / 972)), O13684 (parent)
chain: B1 chain
partner: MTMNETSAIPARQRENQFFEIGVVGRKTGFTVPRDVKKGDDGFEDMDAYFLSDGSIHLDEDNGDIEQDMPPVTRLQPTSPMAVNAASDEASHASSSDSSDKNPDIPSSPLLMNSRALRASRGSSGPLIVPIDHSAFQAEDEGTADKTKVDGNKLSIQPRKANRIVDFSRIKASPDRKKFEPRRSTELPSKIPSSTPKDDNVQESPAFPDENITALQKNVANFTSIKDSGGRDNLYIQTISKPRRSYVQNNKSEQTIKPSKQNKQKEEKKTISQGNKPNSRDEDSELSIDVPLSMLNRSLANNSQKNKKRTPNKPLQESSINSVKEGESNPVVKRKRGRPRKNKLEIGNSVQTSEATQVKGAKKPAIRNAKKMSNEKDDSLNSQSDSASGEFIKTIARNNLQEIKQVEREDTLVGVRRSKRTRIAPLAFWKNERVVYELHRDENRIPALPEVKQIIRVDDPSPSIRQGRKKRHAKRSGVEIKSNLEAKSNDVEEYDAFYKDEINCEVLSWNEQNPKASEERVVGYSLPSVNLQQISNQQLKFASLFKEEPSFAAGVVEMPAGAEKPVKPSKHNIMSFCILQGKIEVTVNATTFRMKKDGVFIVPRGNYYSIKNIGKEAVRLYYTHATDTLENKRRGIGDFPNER

Variants of: B1
Settings: with mis13_schpo mis13, Q9UUB5

Effect of a mutation on the interaction, decreasing interaction:
I241A
I241K
I241D
Y236A
Y236E
Y236K

Variants of: B2
Settings: with cenpc_yeast MIF2, P35201
Chain of cenpc_yeast MIF2, P35201 (P35201 whole entry): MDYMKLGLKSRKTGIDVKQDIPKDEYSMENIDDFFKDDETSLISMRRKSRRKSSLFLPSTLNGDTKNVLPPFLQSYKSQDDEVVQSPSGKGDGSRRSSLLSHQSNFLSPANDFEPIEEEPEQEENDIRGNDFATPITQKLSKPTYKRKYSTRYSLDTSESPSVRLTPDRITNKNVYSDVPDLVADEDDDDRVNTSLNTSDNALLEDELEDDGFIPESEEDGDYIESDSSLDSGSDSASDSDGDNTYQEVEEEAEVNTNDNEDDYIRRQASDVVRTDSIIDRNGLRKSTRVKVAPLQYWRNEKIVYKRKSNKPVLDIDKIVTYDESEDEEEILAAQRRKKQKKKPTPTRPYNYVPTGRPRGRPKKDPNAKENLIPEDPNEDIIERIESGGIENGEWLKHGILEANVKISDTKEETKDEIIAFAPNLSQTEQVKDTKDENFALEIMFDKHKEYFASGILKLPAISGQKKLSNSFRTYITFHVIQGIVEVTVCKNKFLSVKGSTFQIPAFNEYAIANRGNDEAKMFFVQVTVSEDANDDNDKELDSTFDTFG

Effect of a mutation on the interaction, decreasing interaction:
L161K
L161D
Y156E

Variants of: B3
Settings: with tof2_yeast TOF2, Q02208

Effect of a mutation on the interaction, decreasing interaction:
K174E
Y156E
Y156A
L161D
L161K

Variants of: B4
Settings: with dsn1_yeast DSN1, P40568

Effect of a mutation on the interaction, decreasing interaction:
L161D
L161K
Y156E

Variants of: B5
Settings: with cenpc_schpo cnp3, Q9USR9

Effect of a mutation on the interaction, decreasing interaction:
Y236A
I241A
